# According to PMC8871863, “Initiator-Directed Transcription: Fission Yeast Nmtl Initiator Directs Preinitiation Complex Formation and Transcriptional Initiation” (Genes, 2022):
# T1: TFIIB (fission yeast (S. pombe), UniProt O13749 1-340)
# T1 construct: transcription initiation factor TFIIB of fission yeast, recombinant; also called recombinant fission yeast TFIIB
# T1 sequence (looked up): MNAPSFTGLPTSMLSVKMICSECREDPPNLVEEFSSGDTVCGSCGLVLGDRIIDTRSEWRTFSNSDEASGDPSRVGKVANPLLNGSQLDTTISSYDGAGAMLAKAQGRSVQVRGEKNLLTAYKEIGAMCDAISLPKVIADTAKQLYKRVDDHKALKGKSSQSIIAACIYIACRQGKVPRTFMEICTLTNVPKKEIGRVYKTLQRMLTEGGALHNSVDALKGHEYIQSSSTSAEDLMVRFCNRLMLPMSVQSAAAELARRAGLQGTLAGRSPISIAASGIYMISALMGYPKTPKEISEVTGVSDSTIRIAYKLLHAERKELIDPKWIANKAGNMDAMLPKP
# B1: TBP (natural protein, fission yeast (S. pombe), UniProt P17871 1-231, looked up)
# chain: MDFALPTTASQASAFMNNSSLTFPVLPNANNEATNETADSGDAEVSKNEGVSGIVPTLQNIVATVNLDCRLDLKTIALHARNAEYNPKRFAAVIMRIREPKSTALIFASGKMVVLGGKSEDDSKLASRKYARIIQKLGFNAKFTDFKIQNIVGSCDVKFPIRLEGLAYSHGTFSSYEPELFPGLIYRMVKPKVVLLIFVSGKIVLTGAKVREEIYQAFEAIYPVLSEFRKH
# notes: also called fission yeast TBP
# Target: T1, TFIIB
# Test: native gel or EMSA; purified factors incubated 5 min at 25 °C in 20 mM HEPES pH 7.9, 50 mM KCl, 5 mM MgCl2, 0.1 mM EDTA, 5% glycerol, 0.5% PEG 8000, 2 mM DTT, then 15 min at 30 °C with 32P-labelled nmt1 Inr DNA probe; 5% acrylamide gel at 4 °C; all complexes are formed on the DNA probe
# Settings: both partners purified
binder,measurement,value
B1,binding result,binds
